Experimental data published in paper PMC4671958.

Biological target: DNA polymerase theta helicase domain (Polθ-HLD), residues 1–894 (human), O75417
Assay: crystal structure; apo protein, 3.55 Å, four copies in the asymmetric unit; crystallized in 0.2 M NaCl, 0.1 M HEPES (pH 7.0), 20% PEG 6K, 10% ethylene glycol
Conditions: remark: other sources report otherwise

B1: DNA polymerase theta helicase domain (Polθ-HLD), residues 1–894, O75417 1-894 (domain or fragment)
chain: MNLLRRSGKRRRSESGSDSFSGSGGDSSASPQFLSGSVLSPPPGLGRCLKAAAAGECKPTVPDYERDKLLLANWGLPKAVLEKYHSFGVKKMFEWQAECLLLGQVLEGKNLVYSAPTSAGKTLVAELLILKRVLEMRKKALFILPFVSVAKEKKYYLQSLFQEVGIKVDGYMGSTSPSRHFSSLDIAVCTIERANGLINRLIEENKMDLLGMVVVDELHMLGDSHRGYLLELLLTKICYITRKSASCQADLASSLSNAVQIVGMSATLPNLELVASWLNAELYHTDFRPVPLLESVKVGNSIYDSSMKLVREFEPMLQVKGDEDHVVSLCYETICDNHSVLLFCPSKKWCEKLADIIAREFYNLHHQAEGLVKPSECPPVILEQKELLEVMDQLRRLPSGLDSVLQKTVPWGVAFHHAGLTFEERDIIEGAFRQGLIRVLAATSTLSSGVNLPARRVIIRTPIFGGRPLDILTYKQMVGRAGRKGVDTVGESILICKNSEKSKGIALLQGSLKPVRSCLQRREGEEVTGSMIRAILEIIVGGVASTSQDMHTYAACTFLAASMKEGKQGIQRNQESVQLGAIEACVMWLLENEFIQSTEASDGTEGKVYHPTHLGSATLSSSLSPADTLDIFADLQRAMKGFVLENDLHILYLVTPMFEDWTTIDWYRFFCLWEKLPTSMKRVAELVGVEEGFLARCVKGKVVARTERQHRQMAIHKRFFTSLVLLDLISEVPLREINQKYGCNRGQIQSLQQSAAVYAGMITVFSNRLGWHNMELLLSQFQKRLTFGIQRELCDLVRVSLLNAQRARVLYASGFHTVADLARANIVEVEVILKNAVPFKSARKAVDEEEEAVEERRNMRTIWVTGRKGLTEREAAALIVEEARMILQQDLVEM
stoichiometry N: 4
